Laboratory results taken from US20190352429A1 (published 2019).
Residue numbers refer to the chain shown, from its start. In names and notes the source's numbering stands. Values belong to the binder of their own block, whether it stands above or below them.

Key:
[1] = target: T1, EGFR extracellular domain (human, UniProt P00533 25-645); experiment: Octet BLI, protein A biosensors, extracellular domain as antigen
T1 construct: extracellular domain; also called human EGFR; epidermal growth factor receptor
Description: (§1) The affinity of BxM wildtype and MaB40 was analysed using an Octet system with biosensors coated with protein A. As antigens, the extracellular domains of cMET and EGFR were used. Three different concentrations of antibody were tested to determine the affinity.

[2] = target: T2, cMET extracellular domain (human, UniProt P08581 25-932); experiment: as above
T2 construct: extracellular domain; also called human c-MET
Description: as §1

Kd [1]: 5.3 nM
Kd [2]: 0.35 nM
B1: BxM wt (B10v5 x hu225M SEED bispecific IgG without interface mutations) (bispecific antibody)
heavy 1: not shown
light 1: EPVLTQPPSVSVAPGETATIPCGGDSLGSKIVHWYQQRPGQAPLLVVYDDAARPSGIPERFSGSKSGTTATLTISSVEAGDEADYFCQVYDYHSDVEVFGGGTKLTVLGQPKAAPSVTLFPPSSEELQANKATLVCLISDFYPGAVTVAWKADSSPVKAGVETTTPSKQSNNKYAASSYLSLTPEQWKSHKSYSCQVTHEGSTVEKTVAPTECS
heavy 2: EVQLVQSGAEVKKPGASVKVSCKASGFSLTNYGVHWMRQAPGQGLEWIGVIWSGGNTDYNTPFTSRVTITSDKSTSTAYMELSSLRSEDTAVYYCARALTYYDYEFAYWGQGTLVTVSSASTKGPSVFPLAPSSKSTSGGTAALGCLVKDYFPEPVTVSWNSGALTSGVHTFPAVLQSSGLYSLSSVVTVPSSSLGTQTYICNVNHKPSNTKVDKKVEPKSCDKTHTCPPCPAPELLGGPSVFLFPPKPKDTLMISRTPEVTCVVVDVSHEDPEVKFNWYVDGVEVHNAKTKPREEQYNSTYRVVSVLTVLHQDWLNGKEYKCKVSNKALPAPIEKTISKAKGQPREPQVYTLPPPSEELALNELVTLTCLVKGFYPSDIAVEWLQGSQELPREKYLTWAPVLDSDGSFFLYSILRVAAEDWKKGDTFSCSVMHEALHNHYTQKSLDRSPGK
light 2: DIQMTQSPSSLSASVGDRVTITCRASQSIGTNIHWYQQKPGKAPKLLIKYASESISGVPSRFSGSGYGTDFTLTISSLQPEDVATYYCQQNYNWPTTFGQGTKVEIKRTVAAPSVFIFPPSDEQLKSGTASVVCLLNNFYPREAKVQWKVDNALQSGNSQESVTEQDSKDSTYSLSSTLTLSKADYEKHKVYACEVTHQGLSSPVTKSFNRGEC
notes: By LC-ESI-MS the preparation held only 76% of the correctly paired form (12% + 12% light chain mispaired variants); also called BxM wildtype

Kd [1]: 2.9 nM
Kd [2]: 0.42 nM
B2: BxM MaB40 (B10v5 x hu225M SEED bispecific IgG with K26D in CH1 and T18R in CL of hu225M) (bispecific antibody)
heavy 1: not shown
light 1: B1 light 1
heavy 2: B1 heavy 2 with K149D
light 2: B1 light 2 with T129R
notes: Only the correctly paired form was detected by LC-ESI-MS; also called mutant BxM MaB40
